Patent publication US20250051454A1 (DUKE UNIVERSITY, published 2025)

What was measured:
[1] = target: HLA-E on K562-E cells loaded with microbiome-derived peptide […] (Stenotrophomonas sp.) (human, UniProt P13747 22-358; P61769 21-119); test: flow cytometry on peptide-loaded K562-E cells, antibody 10 µg/ml
[2] = target: HLA-E on K562-E cells loaded with microbiome-derived peptide […] (Escherichia coli MS 175-1) (human, UniProt P13747 22-358; P61769 21-119); test: as above
[3] = target: HLA-E on K562-E cells loaded with microbiome-derived peptide […] (Pseudomonas formosensis) (human, UniProt P13747 22-358; P61769 21-119); test: as above
[4] = target: T1, HLA-E-RL9SIV single chain trimer on transfected 293T cells (human, UniProt P61769 21-119; P13747 22-358); test: flow cytometry on SCT-transfected 293T cells
T1 construct: also called control HLA-E-peptide complex

[5] = target: T2, soluble HLA-E-RL9HIV complex (Homo sapiens); test: sandwich ELISA: plate coated with the antibody in serial dilution, C-trap-stabilized HLA-E-RL9HIV added, detection with HRP anti-human β2M [panel C]
T2 construct: C-trap-stabilized in the ELISA, biotinylated in the SPR; control antigen; also called C-trap-stabilized HLA-E-RL9HIV

[6] = target: T3, soluble HLA-E-VL9 complex (HLA-E*01:03 heavy chain, beta2-microglobulin, VL9 peptide …) (human); test: SPR, antibody on CM5 chip, soluble HLA-E-VL9 flowed over, 1:1 model; IgM 3H4
T3 construct: also called VL9 peptide-loaded HLA-E

[7] = target: T4, soluble HLA-E-RL9SIV complex (Homo sapiens); test: sandwich ELISA: plate coated with the antibody in serial dilution, C-trap-stabilized HLA-E-RL9SIV added, detection with HRP anti-human β2M [panel C]
T4 construct: C-trap-stabilized in the ELISA, biotinylated in the SPR; control antigen; also called C-trap-stabilized HLA-E-RL9SIV

[8] = target: T5, Sjogren's syndrome antigen (SSB) (UniProt P05455 1-408); test: AtheNA autoantigen assay [panel H]
T5 sequence (looked up): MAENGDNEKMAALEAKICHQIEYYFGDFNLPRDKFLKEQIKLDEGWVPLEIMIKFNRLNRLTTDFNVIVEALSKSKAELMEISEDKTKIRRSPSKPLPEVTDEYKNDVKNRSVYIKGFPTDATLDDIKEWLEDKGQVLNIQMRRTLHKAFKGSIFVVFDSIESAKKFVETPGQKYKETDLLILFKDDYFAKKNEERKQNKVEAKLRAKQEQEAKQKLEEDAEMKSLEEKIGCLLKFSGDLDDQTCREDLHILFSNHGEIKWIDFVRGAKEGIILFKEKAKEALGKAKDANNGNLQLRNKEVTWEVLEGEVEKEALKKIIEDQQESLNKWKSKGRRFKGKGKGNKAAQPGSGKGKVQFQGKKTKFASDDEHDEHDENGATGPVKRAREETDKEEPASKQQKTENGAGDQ

centromere B (Cent B) = target: T6, centromere B (Cent B) (UniProt P07199 1-599); test: AtheNA autoantigen assay [panel H]
T6 sequence (looked up): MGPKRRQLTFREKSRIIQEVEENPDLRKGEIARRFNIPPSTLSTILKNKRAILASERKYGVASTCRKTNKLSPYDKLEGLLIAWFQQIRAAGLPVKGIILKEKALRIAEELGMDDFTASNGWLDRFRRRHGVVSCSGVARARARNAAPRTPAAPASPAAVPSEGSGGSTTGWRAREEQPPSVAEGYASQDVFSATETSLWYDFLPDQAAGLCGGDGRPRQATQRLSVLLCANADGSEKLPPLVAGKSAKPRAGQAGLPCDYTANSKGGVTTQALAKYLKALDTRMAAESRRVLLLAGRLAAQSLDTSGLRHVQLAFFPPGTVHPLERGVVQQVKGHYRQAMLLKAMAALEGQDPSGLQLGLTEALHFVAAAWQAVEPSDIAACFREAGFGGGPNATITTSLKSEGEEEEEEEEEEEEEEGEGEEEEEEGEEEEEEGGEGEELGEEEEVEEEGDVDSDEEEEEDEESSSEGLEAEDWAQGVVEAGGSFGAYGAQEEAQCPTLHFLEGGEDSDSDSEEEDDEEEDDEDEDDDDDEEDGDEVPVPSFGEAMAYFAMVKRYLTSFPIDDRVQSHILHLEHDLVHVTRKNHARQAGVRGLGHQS

Jo-1 antigen = target: T7, Jo-1 antigen (UniProt P12081 2-509); test: AtheNA autoantigen assay [panel H]
T7 sequence (looked up): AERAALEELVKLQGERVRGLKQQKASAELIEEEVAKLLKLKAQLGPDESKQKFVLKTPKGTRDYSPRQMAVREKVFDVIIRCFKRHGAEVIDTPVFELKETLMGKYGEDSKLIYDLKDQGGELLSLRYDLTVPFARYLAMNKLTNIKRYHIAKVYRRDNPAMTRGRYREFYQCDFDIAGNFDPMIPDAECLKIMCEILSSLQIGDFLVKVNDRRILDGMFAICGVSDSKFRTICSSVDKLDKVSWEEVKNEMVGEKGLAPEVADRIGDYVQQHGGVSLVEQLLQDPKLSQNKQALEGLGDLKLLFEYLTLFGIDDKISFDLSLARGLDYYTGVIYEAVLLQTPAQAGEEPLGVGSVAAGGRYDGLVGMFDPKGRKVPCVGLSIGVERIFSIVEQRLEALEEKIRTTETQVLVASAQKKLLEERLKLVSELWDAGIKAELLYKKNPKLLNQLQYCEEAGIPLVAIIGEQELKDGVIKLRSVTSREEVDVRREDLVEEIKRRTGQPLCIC

scleroderma 70 (Scl-70) = target: T8, scleroderma 70 (Scl-70) (UniProt P11387 2-765); test: AtheNA autoantigen assay [panel H]
T8 sequence (looked up): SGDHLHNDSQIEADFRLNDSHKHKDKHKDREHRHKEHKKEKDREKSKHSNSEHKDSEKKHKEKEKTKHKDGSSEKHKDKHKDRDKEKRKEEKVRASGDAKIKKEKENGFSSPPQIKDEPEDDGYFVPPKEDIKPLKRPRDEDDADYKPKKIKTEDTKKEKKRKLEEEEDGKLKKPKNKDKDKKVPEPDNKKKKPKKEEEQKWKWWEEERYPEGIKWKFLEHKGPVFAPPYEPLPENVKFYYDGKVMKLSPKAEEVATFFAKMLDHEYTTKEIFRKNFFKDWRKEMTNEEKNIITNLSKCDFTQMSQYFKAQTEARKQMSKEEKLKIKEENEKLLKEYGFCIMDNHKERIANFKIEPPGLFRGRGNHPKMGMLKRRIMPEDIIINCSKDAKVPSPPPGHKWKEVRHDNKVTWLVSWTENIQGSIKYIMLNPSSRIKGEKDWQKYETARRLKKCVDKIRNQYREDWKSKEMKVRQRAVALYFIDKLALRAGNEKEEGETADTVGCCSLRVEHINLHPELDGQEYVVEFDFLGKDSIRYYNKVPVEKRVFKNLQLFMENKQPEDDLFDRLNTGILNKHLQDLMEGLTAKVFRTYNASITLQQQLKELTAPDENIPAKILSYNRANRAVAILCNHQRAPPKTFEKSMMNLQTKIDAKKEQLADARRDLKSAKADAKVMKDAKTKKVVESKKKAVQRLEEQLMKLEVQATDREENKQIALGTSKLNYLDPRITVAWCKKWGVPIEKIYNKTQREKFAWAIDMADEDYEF

[9] = target: T3, soluble HLA-E-VL9 complex (HLA-E*01:03 …); test: SPR, antibody on CM5 chip, soluble HLA-E-VL9 flowed over, 1:1 model; human IgG1 backbone 3H4
[10] = target: T3, soluble HLA-E-VL9 complex (HLA-E*01:03 …); test: SPR, antibody (human IgG1) on CM5 chip, soluble HLA-E-VL9 flowed over; CA123 on a human IgG1 backbone
[11] = target: T1, HLA-E-RL9SIV single chain trimer on …; test: flow cytometry, SCT-transfected 293T cells, MFI bar chart [E]
[12] = target: T9, HLA-E-RL9HIV single chain trimer on transfected 293T cells (human, UniProt P61769 21-119; P13747 22-358); test: as above
T9 construct: also called control HLA-E-peptide complex

[13] = target: T3, soluble HLA-E-VL9 complex (HLA-E*01:03 …)

B1: 3H4 (mouse IgM monoclonal antibody) (antibody, V domains shown)
VH: EVQLQESGPELVKPGASVKIPCKASGYTFTDYNMDWVKQSHGKSLEWIGDINPNNGGTIYNQKFKGKATLTVDKSSSTAYMELRSLTSEDTAVYYCARPDYYGSSYGWYFDVWGTGTTVTVSS
VL: DIVITQSPSSMYASLGERVTITCKASQDINSYLSWFQQKPGKSPKTLIYRANRLVDGVPSRFSGSGSGQDYSLTISSLEYEDMGIYYCLQYDEFPLTFGAGTKLELK
notes: also called mAb 3H4; IgM 3H4
binding result [1]: binds | binding result [2]: binds | binding result [3]: binds | binding result [4]: no binding | binding result [5]: no binding | Kd [6]: 8.1 µM | binding result [7]: no binding

B2: 3H4 on a human IgG1 backbone (3H4 Gwt) (antibody, V domains shown)
VH: EVQLQESGPELVKPGASVKIPCKASGYTFTDYNMDWVKQSHGKSLEWIGDINPNNGGTIYNQKFKGKATLTVDKSSSTAYMELRSLTSEDTAVYYCARPDYYGSSYGWYFDVWGTGTTVTVSS
VL: DIVITQSPSSMYASLGERVTITCKASQDINSYLSWFQQKPGKSPKTLIYRANRLVDGVPSRFSGSGSGQDYSLTISSLEYEDMGIYYCLQYDEFPLTFGAGTKLELK
notes: also called 3H4 IgG; wild-type 3H4 IgG
binding result [8]: no binding | binding result (centromere B (Cent B)): no binding | binding result (Jo-1 antigen): no binding | binding result (scleroderma 70 (Scl-70)): no binding | Kd [9]: 49.8 µM

B3: CA123 (human antibody on a human IgG1 backbone) (antibody, V domains shown)
VH: EVQLVESGGGLVQPGGSLRLSCAASGFTFSSYWMHWVRQAPGKGLVWVSRINSDGSSTSYADSVKGRFTISRDNAKNTLYLQMNSLRAEDTAVYYCARDQGSTSCYYCYYGMDVWGQGTTVTVSS
VL: not shown
notes: also called CA123 IgG
Kd [10]: 3.8 µM | binding result [11]: no binding (tested: 2 µg/ml) | binding result [12]: no binding (tested: 2 µg/ml) | koff [13]: 0.794 s⁻¹ | kon [13]: 211000 M⁻¹ s⁻¹
